In patent US20240285753A1:

Legend:
[1] = biological target: synthetic stem helix peptide (SARS-CoV-2 spike residues 1140-1164) (SARS-CoV-2), P0DTC2; test: ELISA, peptide adsorbed on the plate, mAb titrated
[2] = biological target: synthetic fusion peptide (SARS-CoV-2 spike residues 808-833) (SARS-CoV-2), P0DTC2; test: ELISA, coated antigen, mAb titrated

B1: Cov30-14 (antibody)
chain 1: QVQLVQSGAEVKKPGASVKVSCQTSGYTFTSYYMHWVRQAPGQGLEWMGLITPSGDDTYYAQRFQGRVTMTRDTSTSPTYMELSSLTSEDTAVYYCAKMSRAGGFDVWGQGTLVTVSS
chain 2: EVVLTQSPGTLSLSPGERATLSCRASQSITGRYLAWYQQKPGQAPRLLMYGESSRVTGIPDRFSGGGSGTDFTLTISRLEPEDFAVYYCQHFASSPPTYTFGQGTKLEIR
- EC50 (read off the curve) [1]: 0.03 µg/mL

B2: COV44-79 (antibody)
chain 1: QVQLVESGGGVVQPGRSLRLSCAASGLTFSGYAMHWVRQAPGKGLEWVAVISRDARNKYYADSVKGRFTISRDNSKKTVYLEMNSLRVEDTAVYYCAILIIPGITEPGSPDALDIWGQGTMVSVSS
chain 2: DIQMTQSPSSMSASVGDRVTITCRASQDISKWLAWYQQRPGKAPKLLIYAASSLQSGVPSRFSGSGSGTDFTLTISSLQPEDFATYYCQQASSFPWSITFGQGTRLEIR
- EC50 (read off the curve) [2]: 0.7 µg/mL

B3: Cov89-22 (antibody)
chain 1: QEQLVQSGAEVKKPGASVKVSCKSSGFTFSYFYLHWVRQAPGQGLEWMGIINPRGDGTRYAQKFQGRVTMTRDASTGTLYMELRSLRSEDTAVYYCARGADHGAFDIWGQGTMVTVSS
chain 2: EIVLTQSPGTLSLSPGERATLSCRASQSVRRNYFAWYQQKRGQAPRLLIYDASTRATGIPDRFSGSGSGTDFTLTISRLEPEDFAVYYCQQYDSSPPMYIFGQGTKLEIK
- EC50 (read off the curve) [1]: 0.02 µg/mL
